Paper PMC2137744

Molecular target: H chains of human 7S γ-globulin reduced without alkylation (human)
Test: co-sedimentation

L chains of human 7S γ-globulin reduced without alkylation (natural protein)
yield of doubly labeled 7S material: 30 per cent
